# Results as given in the DeepSol protein solubility set.
# Assay: soluble on expression in E. coli; label from the status in PepcDB or PDB records
row,Sequence,soluble on expression in E. coli
1,AIALRADKPKCSIQNFFIPALGKDPNSRDNTTLNFMVRCDNPNKDKGIYYDDVHLNFSTINTTKINSSALVLVGNYTVPKFYQGHKKKAKKWGQVKPLNNQTVLRAVLPNGSAVFRLDLKTQVRFKIVFWKTKRYGVEVGADVEVNGDGVKAQKKGIKMKKS,soluble
2,MGSDKIHHHHHHMKSLGRHLVAEFYECDREVLDNVQLIEQEMKQAAYESGATIVTSTFHRFLPYGVSGVVVISESHLTIHTWPEYGYAAIDLFTCGEDVDPWKAFEHLKKALKAKRVHVVEHERGRYDEIGIPEDSPHKAAV,soluble
3,EPDLDDWFENDREDLRHFVGIYVLAHYRNRPSDVALLADAPHHEARVLRLKNGKIVTAIQIAKEGGIPKAVIDKMAKGYKPPGNIIPDMMVKHHYAKEFARLKGYRVVRIATHPDAMDMGLGSKALELLIKEAEEKGLDWVGSGFGASPELIRFWVRNGFAVVHLSPTRNPVSGEYTAIVIKP,not soluble
4,MRGMLPLFEPKGRVLLVDGHHLAYRTFHALKGLTTSRGEPVQAVYGFAKSLLKALKEDGDAVIVVFDAKAPSFRHEAYGGYKAGRAPTPEDFPRQLALIKELVDLLGLARLEVPGYEADDVLASLAKKAEKEGYEVRILTADKDLYQLLSDRIHVLHPEGYLITPAWLWEKYGLRPDQWADYRALTGDESDNLPGVKGIGEKTARKLLEEWGSLEALLKNLDRLKPAIREKILAHMDDLKLSWDLAKVRTDLPLEVDFAKRREPDRERLRAFLERLEFGSLLHEFGLLESPKALEEAPWPPPEGAFVGFVLSRKEPMWADLLALAAARGGRVHRAPEPYKALRDLKEARGLLAKDLSVLALREGLGLPPGDDPMLLAYLLDPSNTTPEGVARRYGGEWTEEAGERAALSERLFANLWGRLEGEERLLWLYREVERPLSAVLAHMEATGVRLDVAYLRALSLEVAEEIARLEAEVFRLAGHPFNLNSRDQLERVLFDELGLPAIGKTEKTGKRSTSAAVLEALREAHPIVEKILQYRELTKLKSTYIDPLPDLIHPRTGRLHTRFNQTATATGRLCCCDPNLQNIPVRTPLGQRIRRGFIAEEGWLLVALDYSQIELRVLAHLSGDENLIRVFQEGRDIHTETASWMFGVPREAVDPLMRRAAKTINFGVLYGMSAHRLSQELAIPYEEAQAFIERYFQSFPKVRAWIEKTLEEGRRRGYVETLFGRRRYVPDLEARVKSVREAAERMAFNMPVQGTAADLMKLAMVKLFPRLEEMGARMLLQVHDELVLEAPKERAEAVARLAKEVMEGVYPLAVPLEVEVGIGEDWLSAKE,soluble
5,MEQPLMPPAPPSYVASQSQAITTQPGASIPMPPGTIVIEALPPVEGIPGGLEYLAYLDTIMVHQFLEPIEIRTGWETKNKYAIKKICYQKRQCCGAERAFVMHIVDNFNKEVLTVKRERHCCGCCCWLGSTNKSTIESPSMGLLGTVLLGHGCTNSHCNVLDKDEELLFLVDGQGCCTYCCCDDKAFTIKTPDTYKRIGAITKKWGGIIREAYTDADTFAVTFPADLDVKAKALLLATTILQSLRVVVEVEKLEIEIFICCALFMK,not soluble
6,MAGDPMGTLKLIQYPSQLLSLTISDIINKQNLSQLIQKSKKDDSENWEGKDWIIKNTPQQGINWIGEHPNIKAVIIKTKDGSYADDGWKNNEKTIYSYSFKAAKGIINFNDSANRVLINQPISNYPILLFTDSSNKWEFQGCFKIIDILEKAVILEKMISFPSLNDKNSDNDDVILYKNEHTEGKIKYITHMLSERNRKIIDEIKDNSQWVCDICEIKFLDKYGKNYIEAHHKIPIHTFTGEHRILKTDFALLCPNCHKAVHIYLREENLQYEEAKIKIRNILKRLEHHHHHH,not soluble
7,MGSDKIHHHHHHMAATSDYDVIVVGGGHNGLTCAGYLARAGKRVLVLERRPIVGGAVCTEEVIPGYKIDVGSSAHIMIHLTPIVRDLELERHGLEYIDMDPYAFYPLPDGSGAIYFYRDVERTCQSIATVSPRDAEAYRRFLDFWTPLNEAVFDVFLNPPSVTRLFGKVASSIPRLPKAEQKVLEVTRRLFTSYAQLIEETFESEAMRAAMTWLAAQSGPPPDEIGAGDFFGWHAMLHYSGAKHPRGGSGMLTQAMARSLKAMGGEVILDAPVRRILVQNGRVQAWKRQTVSAIRPRLLFPTLTC,not soluble
8,MGSDKIHHHHHHMEKTAIRIPIFMYSLLTPAWEHKIEAQTDGDPFGDSQPMKEYYGPNGKWLLDGVLRHLNISREDEIAILTTSDERYVSTCVSITCFNYAKISRVVGPNTKVVIVIHEFGYVYPDIKNYVCNLKERGIVVIEDCAHIIGCDINGKKIGSFGDYALFSLPKISPARAGGLLRTTKNIKLPVLNSNLSQLTNIGIAGAEKYLPKYKFFNKGRIERAELLKSQVNDLCNIFEPSHPAVPYFLGIVTSEKSKIETSLPWIEFGATLRNDLVYIPTNPLASINLFELITNTIKNGGKICN,not soluble
9,SAPGVPDARAIAAICEQLRQHVADLGVLYIKLHNYHWHIYGIEFKQVHELLEEYYVSVTEAFDTIAERLLQLGAQAPASMAEYLALSGIAEETEKEITIVSALARVKRDFEYLSTRFSQTQVLAAESGDAVTDGIITDILRTLGKAIWMLGATLKA,soluble
10,MGSDKIHHHHHHCSTEVTEYRQQQPALDIFHYFQGRTEAWGMVQDRSGKQLRRFHVEIDGDVVGDTLTLHERFVYDDGEKQQRIWRIRRTGDNRYQGTAGDIEGVASGQAAGNAFHWRYSMNVEASGSRWLLHFDDWMFLQDGSHLFNKTEMKKFGITVATVTLFFTRTTAEERTAP,not soluble
11,MNAGILGVGKYVPEKIVTNFDLEKIMDTSDEWIRTRTGIEERRIARDDEYTHDLAYEAAKVAIKNAGLTPDDIDLFIVATVTQEATFPSVANIIQDRLGAKNAAGMDVEAACAGFTFGVVTAAQFIKTGAYKNIVVVGADKLSKITNWDDRTTAVLFGDGAGAVVMGPVSDDHGLLSFDLGSDGSGGKYLNLDENKKIYMNGREVFRFAVRQMGEASLRVLERAGLEKEDLDLLIPHQANIRIMEASRERLNLPEEKLMKTVHKYGNTSSSSIALALVDAVEEGRIKDNDNVLLVGFGGGLTWGALIIRWGK,not soluble
12,MIERRKIAVIGSGQIGGNIAYIVGKDNLADVVLFDIAEGIPQGKALDITHSMVMFGSTSKVIGTNDYADISGSDVVIITASIPGRPKDDRSELLFGNARILDSVAEGVKKYCPNAFVICITNPLDVMVSHFQKVSGLPHNKVCGMAGVLDSSRFRTFIAQHFGVNASDVSANVIGGHGDGMVPATSSVSVGGVPLSSFIKQGLITQEQIDEIVCHTRIAWKEVADNLKTGTAYFAPAAAAVKMAEAYLKDKKAVVPCSAFCSNHYGVKGIYMGVPTIIGKNGVEDILELDLTPLEQKLLGESINEVNTISKVLDNAPAAGA,soluble
13,PQMKTLETRSCILRPASLDDVEDFFDCYKNKIVVKHLPFSEHKSLEDTRKFIKSFFLNPYKKGKIGHFAIVYKRDNKVIGNMGFNNINPKALEAEIGICINPSYWGHDFATEITKRVIQYGFRELNLNKIIAITYEENQNSTKSLDLLGFKCTGKYIKKIHTGNTVKNVPCYQYELKKQ,not soluble
14,MAHHHHHHMGTLEAQTQGPGSMKLLFVCLGNICRSPAAEAVMKKVIQNHHLTEKYICDSAGTCSYHEGQQADSRMRKVGKSRGYQVDSISRPVVSSDFKNFDYIFAMDNDNYYELLDRCPEQYKQKIFKMVDFCTTIKTTEVPDPYYGGEKGFHRVIDILEDACENLIIKLEEGKLIN,soluble
15,MSLNLKKAELHVHLEGTISPELAKKLAKRNQLTLPNGLIAPDEKSYLSRDFLDFLKVYDTLASVIKNPQDYYDITFDYLKSNAQEHAIYIEMMYSPDHAEQSSGIPSKEHLAAIQQAIDDAKSQFDIVGRIIITAVRHFGVEACERVAKQASIDKFPCVTGFGLGGDEAKFPPQLFTKAYQIAADSGLECTVHAGEFDSAKGMEEAMKTLPIKRIGHGVRVIDSPDIMAMVKDQGIALEVCPTSNIFLGLFKDMNSHPFPKLYEAGIKVSINSDDPPFMSTTLAQEYKRVQKAYGYNNDTMNNITRMAIEAAFVDEKTRKELLTKLEQEGHHHHHH,soluble
16,MQEAIITSTVDLTSGGCNACGLVEDTVYTLAMNGVDIPLDGLTVAHLVSAIVARNGFKQELQMDMLDDEYILYRKEDTTVTFKEAYNHLSYDNGSEKIQSKNKLEDLPKLFEQVNQILTTVFGIGTVNFIIE,not soluble
17,MNRISFNSFSNMHSLLSSKFQEHYNDIYDWNGNIENIYKANTFISIGYKLLYPLGVLEANFDKEKLKKFLFRICSYYNDIPYHTSLHAAQVAHFSKSMLFMLDMNHKISAIDEFCLHISSLCHDTGHPGLNNYFLINSENNLALTYNDNSVLENYHCSLLFKTLKNPNYNIFEHYPYHIFISCKKNIIKAILSTDMKNHFEYISDFRTSKEFIDYDNLSNDQIWQIFCLILKASDIGHSTLEWNKHLEWTLKINEEFYLQGLLEKSLNIQNSFLCDINTMNKLALSQIDFLKHLCIPLFNELNYICKNNDVYTHCIQPIENNIERWESHKND,soluble
18,MEMTMEQEPLNGWPQPYRLLDAQPYWDALQDEKLTYQQCVACRQSVWPAHSRCPHCSSDQLVWQASSGRATVYSFSTVTRGPTPVWASIVPYTVGFVEMDEGYFLFTQIEGPPGSIGVGDKVQVRFVRRGAQILPVFVSADLPA,not soluble
19,MAPQKCFLQIKGMTCASCVSNIERNLQKEAGVLSVLVALMAGKAEIKYDPEVIQPLEIAQFIQDLGFEAAVMEDYAGSDGNIELTITGMTCASCVHNIESKLTRTNGITYASVALATSKALVKFDPEIIGPRDIIKIIEEIGFHASLAQ,soluble
20,MPALSGGDGVIRFQQVSKAYRGGRQALQKVDFHLRRGEMAFLGGHSGAGKSTLLKLICAIERPTDGKISFNGHDITRIPNKDIPFLRRNIGIVFQDHRLLMDRSIYDNVALPMRIESISENEIKRRVSAALDKTGLLDKARCLPSQLSGGEQQRVGIARAVVNRPTLLLADEPTGNLDPELSSRVLRLFEEFNRAGVTILLATHDIHLVNSRPQYRHLELNQGFLSEVADYGR,not soluble
21,MGSDKIHHHHHHMTKNKLNQNSYELEKVKERIEQILSQFFPEQIMKDLPLYGKMLRVRLSILSFKNRGVEIGEDAISSLAALELVHLASLLHDDVIDGARFRRGKETINFMYGDKAAVAAGDLVLVSAFHTVEEIGNNKLRRAFLNVIGKMSEAELIEQLSRYKPITKEEYLRIVEGKSGALFGLALQLPALLEGELGEDLYNLGVTIGTIYQMFDDIMDFAGMEKIGKDGFLDLKNGVASFPLVTAMEKFPEARQMFENRDWSGLMSFMREKGILKECEETLKVLVKNVIIENSWLRDFVDGIFKIKISS,not soluble
22,MGSDKIHHHHHHMILAAKNSVFVHIRRGDYVGIGCQLGIDYQKKALEYMAKRVPNMELFVFCEDLEFTQNLDLGYPFMDMTTRDKEEEAYWDMLLMQSCQHGIIANSTYSWWAAYLIENPEKIIIGPKHWLFGHENILCKEWVKIESHFEVKSQKYNA,not soluble
23,MAHHHHHHMSKKEAISTPRKSKKAEVVIEGCVTIGSKQLLPSALDESRREQLSKQFDDIIEAHVAIDGGIADPVAAKIKELPTLSVGFIARAMGLNLSNDQVLSLVEMVEERDTVSRGCVPVGPLKEIIVGALMSGVITRQDSVAPTSNRKKRHSVSENRPLMHVSRDSEELIYAAFRTLDVGNRGYMEAEELRHLFRSGLEPFTDEEMENMIAAAADPQNGLIFYEDFVDVLANE,soluble
